T1: B-cell maturation antigen (BCMA) (UniProt Q02223 1-184, limits assumed)
T1 sequence (looked up): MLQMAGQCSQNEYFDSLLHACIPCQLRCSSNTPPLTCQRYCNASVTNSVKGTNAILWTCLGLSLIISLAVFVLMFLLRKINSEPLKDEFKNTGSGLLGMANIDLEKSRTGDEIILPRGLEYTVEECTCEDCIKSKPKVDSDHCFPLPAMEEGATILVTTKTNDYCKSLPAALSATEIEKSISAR


Assays:
[1] = target: T2, human GPRC5D (human, UniProt Q9NZD1 1-345); experiment: cell-based or functional assay
[2] = target: T2, human GPRC5D; experiment: cell-based or functional assay; remark: listed apart in the source
[3] = target: T2, human GPRC5D; experiment: flow cytometry on NCI-H929 cells expressing human GPRC5D
Method: To measure the binding to GPRC5D, we performed a flow cytometry-based binding assay on reported multiple myeloma cell lines (Lombardi et al., Molecular characterization of human multiple myeloma cell lines by integrative genomics: insights into the biology of the disease; Genes Chromosomes Cancer. 2007 March; 46(3):226-38.). The cell line NCI-H929 (ATCC® CRL-9068) was cultured in RPMI 1640 with Glutamax medium (Gibco) supplemented with 10% FBS, 1× Penicillin/Streptomycin (Gibco), lx Sodium Pyruvate (Gibco) and 50 μM beta-mercaptoethanol (Gibco).
0.1 Mio cells per well of a 96-round-bottom-well plate were incubated with 150 nM to 15 fM (serial dilutions of 1:10) of the indicated GPRC5D IgG constructs 5E11g2 and 5F11g2 or no construct for 30 min at 4° C. […] After two final washing steps, flow cytometric acquisition was performed on a custom-designed BD Biosciences Fortessa and analyzed using BD Diva. EC50 values were calculated, using GraphPad Prism software. […] None of the antibodies reaches saturation in the assessed concentration range.

[4] = target: T2, human GPRC5D; experiment: cell-based or functional assay; remark: listed apart in the source
[5] = target: T1, B-cell maturation antigen (BCMA); experiment: cell-based or functional assay

T2 sequence (Q9NZD1 whole entry): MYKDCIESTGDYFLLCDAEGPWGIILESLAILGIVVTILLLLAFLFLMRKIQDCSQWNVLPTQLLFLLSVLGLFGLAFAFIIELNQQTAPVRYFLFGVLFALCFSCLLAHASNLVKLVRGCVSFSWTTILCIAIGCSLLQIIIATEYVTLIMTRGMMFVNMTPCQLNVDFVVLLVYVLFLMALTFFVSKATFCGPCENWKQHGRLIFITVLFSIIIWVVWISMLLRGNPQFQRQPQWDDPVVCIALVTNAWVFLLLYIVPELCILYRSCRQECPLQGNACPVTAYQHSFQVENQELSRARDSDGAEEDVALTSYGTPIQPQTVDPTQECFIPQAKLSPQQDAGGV

Binder | EC50 of in vitro killing, AMO-1 [1] [pM] | EC50 of in vitro killing, EJM [1] [pM] | EC50 of in vitro killing, L363 [1] [pM] | EC50 of in vitro killing, MOLP-2 [1] [pM] | EC50 of in vitro killing, NCI-H929 [1] [pM] | EC50 of in vitro killing, OPM-2 [1] [pM] | EC50 of in vitro killing, RPMI [1] [pM] | EC50 of T cell mediated killing, AMO-1 cells (LDH release) [2] [pM] | EC50 of T cell mediated killing, L363 cells (LDH release) [2] [pM] | EC50 of T cell mediated killing, NCI-H929 cells (LDH release) [2] [pM] | EC50 of T cell mediated killing, RPMI-8226 cells (LDH release) [2] [pM] | EC50 of GPRC5D-IgG induced tumor cell lysis (ADCC, LDH release), AMO-1 [4] [pM] | EC50 of GPRC5D-IgG induced tumor cell lysis (ADCC, LDH release), NCI-H929 [4] [pM] | also measured
5E11-TCB (bispecific antibody, human IgG1, kappa, L234A L235A) light 1: DIVLTQSPALAVSPGQRATISCRASQSVSISGINLMNWYQQKPGQQPKLLIYHASILASGIPTRFSGSGSGTDFTLTIDPVQADDIATYYCQQTRESPLTFGSGTNLEIKRTVAAPSVFIFPPSDRKLKSGTASVVCLLNNFYPREAKVQWKVDNALQSGNSQESVTEQDSKDSTYSLSSTLTLSKADYEKHKVYACEVTHQGLSSPVTKSFNRGEC light 2: EVQLLESGGGLVQPGGSLRLSCAASGFTFSTYAMNWVRQAPGKGLEWVSRIRSKYNNYATYYADSVKGRFTISRDDSKNTLYLQMNSLRAEDTAVYYCVRHGNFGNSYVSWFAYWGQGTLVTVSSASVAAPSVFIFPPSDEQLKSGTASVVCLLNNFYPREAKVQWKVDNALQSGNSQESVTEQDSKDSTYSLSSTLTLSKADYEKHKVYACEVTHQGLSSPVTKSFNRGEC heavy 1: ELQLEQSGGGLVQPGGSLTLSCAASGFTFSKYAMAWVRQAPTKGLEWVASISTGGVNTYYRDSVKARFTISRDNAKNTQYLQMDSLRSEDTATYYCATHTGDYFDYWGQGVMVTVSSASTKGPSVFPLAPSSKSTSGGTAALGCLVEDYFPEPVTVSWNSGALTSGVHTFPAVLQSSGLYSLSSVVTVPSSSLGTQTYICNVNHKPSNTKVDEKVEPKSCDKTHTCPPCPAPEAAGGPSVFLFPPKPKDTLMISRTPEVTCVVVDVSHEDPEVKFNWYVDGVEVHNAKTKPREEQYNSTYRVVSVLTVLHQDWLNGKEYKCKVSNKALGAPIEKTISKAKGQPREPQVCTLPPSRDELTKNQVSLSCAVKGFYPSDIAVEWESNGQPENNYKTTPPVLDSDGSFFLVSKLTVDKSRWQQGNVFSCSVMHEALHNHYTQKSLSLSPGK heavy 2: not shown | 8 | 11 | 17 | 18 | 7 | 2 | 64 | 14 | 12 | 7 | 24 |  |  | 
5E11g2 (antibody, human IgG1, kappa, V domains shown, Glyco-engineered human IgG1 (GlycoMab technology); afucosylation degree 59.1%; also called BSH-5E11-G7 hu IgG1 G2) VH: ELQLEQSGGGLVQPGGSLTLSCAASGFTFSKYAMAWVRQAPTKGLEWVASISTGGVNTYYRDSVKARFTISRDNAKNTQYLQMDSLRSEDTATYYCATHTGDYFDYWGQGVMVTVSS VL: DIVLTQSPALAVSPGQRATISCRASQSVSISGINLMNWYQQKPGQQPKLLIYHASILASGIPTRFSGSGSGTDFTLTIDPVQADDIATYYCQQTRESPLTFGSGTNLEIKR |  |  |  |  |  |  |  |  |  |  |  | 405 | 84 | EC50 [3]: ~69500 pM
5F11g2 (antibody, human IgG1, kappa, V domains shown) VH: EVQLVESGGGLVQPGRSLKLSCAASGFSFSNYGMAWVRQAATKGLEWVASISTGGGNTYYRDSVKGRFIVSRDNAKNTQYLQMDSLRSEDTATYYCTRHDRGGLYWGQGVMVTVSS VL: DIVMTQAPLSVSVTPGESASISCRSSKSLLHSNGITYVYWYFQKPGKSPQVLIYRMSNLASGVPDRFSGSGSETDFTLKISRVEAEDVGIYHCGQLLENPYTFGAGTELELKR |  |  |  |  |  |  |  |  |  |  |  | 96 | 48 | 
5F11-TCB (bispecific antibody, human IgG1, kappa, L234A L235A) light 1: DIVMTQAPLSVSVTPGESASISCRSSKSLLHSNGITYVYWYFQKPGKSPQVLIYRMSNLASGVPDRFSGSGSETDFTLKISRVEAEDVGIYHCGQLLENPYTFGAGTELELKRTVAAPSVFIFPPSDRKLKSGTASVVCLLNNFYPREAKVQWKVDNALQSGNSQESVTEQDSKDSTYSLSSTLTLSKADYEKHKVYACEVTHQGLSSPVTKSFNRGEC light 2: EVQLLESGGGLVQPGGSLRLSCAASGFTFSTYAMNWVRQAPGKGLEWVSRIRSKYNNYATYYADSVKGRFTISRDDSKNTLYLQMNSLRAEDTAVYYCVRHGNFGNSYVSWFAYWGQGTLVTVSSASVAAPSVFIFPPSDEQLKSGTASVVCLLNNFYPREAKVQWKVDNALQSGNSQESVTEQDSKDSTYSLSSTLTLSKADYEKHKVYACEVTHQGLSSPVTKSFNRGEC heavy 1: EVQLVESGGGLVQPGRSLKLSCAASGFSFSNYGMAWVRQAATKGLEWVASISTGGGNTYYRDSVKGRFIVSRDNAKNTQYLQMDSLRSEDTATYYCTRHDRGGLYWGQGVMVTVSSASTKGPSVFPLAPSSKSTSGGTAALGCLVEDYFPEPVTVSWNSGALTSGVHTFPAVLQSSGLYSLSSVVTVPSSSLGTQTYICNVNHKPSNTKVDEKVEPKSCDKTHTCPPCPAPEAAGGPSVFLFPPKPKDTLMISRTPEVTCVVVDVSHEDPEVKFNWYVDGVEVHNAKTKPREEQYNSTYRVVSVLTVLHQDWLNGKEYKCKVSNKALGAPIEKTISKAKGQPREPQVCTLPPSRDELTKNQVSLSCAVKGFYPSDIAVEWESNGQPENNYKTTPPVLDSDGSFFLVSKLTVDKSRWQQGNVFSCSVMHEALHNHYTQKSLSLSPGK heavy 2: not shown | 6 | 3 | 3 | 1 | 4 | 1 | 6 | 3 | 1 | 1 | 2 |  |  | 
BCMA-TCB (bispecific antibody, human IgG1, kappa, L234A L235A) heavy 1: EVQLLESGGGLVQPGGSLRLSCAASGFTFSSYAMNWVRQAPGKGLEWVSAITASGGSTYYADSVKGRFTISRDNSKNTLYLQMNSLRAEDTAVYYCARYWPMSLWGQGTLVTVSSASTKGPSVFPLAPSSKSTSGGTAALGCLVEDYFPEPVTVSWNSGALTSGVHTFPAVLQSSGLYSLSSVVTVPSSSLGTQTYICNVNHKPSNTKVDEKVEPKSCDKTHTCPPCPAPEAAGGPSVFLFPPKPKDTLMISRTPEVTCVVVDVSHEDPEVKFNWYVDGVEVHNAKTKPREEQYNSTYRVVSVLTVLHQDWLNGKEYKCKVSNKALGAPIEKTISKAKGQPREPQVCTLPPSRDELTKNQVSLSCAVKGFYPSDIAVEWESNGQPENNYKTTPPVLDSDGSFFLVSKLTVDKSRWQQGNVFSCSVMHEALHNHYTQKSLSLSPGK light 1: EIVLTQSPGTLSLSPGERATLSCRASQSVSAYYLAWYQQKPGQAPRLLMYDASIRATGIPDRFSGSGSGTDFTLTISRLEPEDFAVYYCQQYERWPLTFGQGTKVEIKRTVAAPSVFIFPPSDRKLKSGTASVVCLLNNFYPREAKVQWKVDNALQSGNSQESVTEQDSKDSTYSLSSTLTLSKADYEKHKVYACEVTHQGLSSPVTKSFNRGEC heavy 2: not shown light 2: EVQLLESGGGLVQPGGSLRLSCAASGFTFSTYAMNWVRQAPGKGLEWVSRIRSKYNNYATYYADSVKGRFTISRDDSKNTLYLQMNSLRAEDTAVYYCVRHGNFGNSYVSWFAYWGQGTLVTVSSASVAAPSVFIFPPSDEQLKSGTASVVCLLNNFYPREAKVQWKVDNALQSGNSQESVTEQDSKDSTYSLSSTLTLSKADYEKHKVYACEVTHQGLSSPVTKSFNRGEC |  |  |  |  |  |  |  |  |  |  |  |  |  | EC50 of in vitro killing, AMO-1 [5]: 518 pM; EC50 of in vitro killing, EJM [5]: 132 pM; EC50 of in vitro killing, L363 [5]: 127 pM; EC50 of in vitro killing, MOLP-2 [5]: 32 pM; EC50 of in vitro killing, NCI-H929 [5]: 311 pM; EC50 of in vitro killing, OPM-2 [5]: 33 pM; EC50 of in vitro killing, RPMI [5]: 11 pM

— US20220411491A1 (Hoffmann-La Roche, published 2022)
